Positions count from the first letter of the chain named. Names may count otherwise. “And” between values parts separate entries of the source, which are not always exact repeats. Identical values can stand only once.
What was measured:
[1] = target: ^mChSpindly^Y26BPA (human) (UniProt Q96EA4); assay: mass photometry; Refeyn TwoMP; sample diluted to a final 10 nM in Spindly buffer (50 mM Hepes pH 8.0, 250 mM NaCl, 2 mM TCEP); crosslinked samples measured after dilution beside untreated controls
[2] = target: the molecule itself; assay: as above
[3] = target: T1, mCherry-tagged full-length Spindly (^mChSpindly^FL) (human), Q96EA4; assay: as above; conditions: remark: other sources report otherwise
T1 chain: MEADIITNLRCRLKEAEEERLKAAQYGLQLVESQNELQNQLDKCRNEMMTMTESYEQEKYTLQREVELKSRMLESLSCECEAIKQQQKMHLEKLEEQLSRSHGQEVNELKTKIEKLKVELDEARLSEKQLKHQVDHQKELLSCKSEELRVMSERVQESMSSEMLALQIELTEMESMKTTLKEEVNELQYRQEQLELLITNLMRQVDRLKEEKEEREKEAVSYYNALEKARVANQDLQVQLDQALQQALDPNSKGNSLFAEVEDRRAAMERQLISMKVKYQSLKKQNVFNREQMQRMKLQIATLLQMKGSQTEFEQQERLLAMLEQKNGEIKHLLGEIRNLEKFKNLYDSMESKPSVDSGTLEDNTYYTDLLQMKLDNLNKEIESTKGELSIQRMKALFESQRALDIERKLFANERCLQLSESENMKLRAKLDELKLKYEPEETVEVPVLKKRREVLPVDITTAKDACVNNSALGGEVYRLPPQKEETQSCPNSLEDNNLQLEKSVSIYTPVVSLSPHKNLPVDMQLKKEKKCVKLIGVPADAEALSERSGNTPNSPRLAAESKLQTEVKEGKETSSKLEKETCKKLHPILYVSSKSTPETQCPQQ

[4] = target: T2, full-length Spindly without mCherry tag (human), Q96EA4; assay: as above; conditions: remark: other sources report otherwise
T2 chain: T1 chain

Spindly^250–605 = target: T3, Spindly^250–605 (human, UniProt Q96EA4 250-605); assay: SEC; Spindly N-terminal and C-terminal fragments mixed, 10 µM each; 4°C, Spindly buffer; fractions on SDS-PAGE; conditions: both partners purified
T3 construct: also called CC2 and CC3; source: TnAO38 insect cells (baculovirus), purified (HisTrap, Resource Q, Superdex 200)
T3 sequence (looked up): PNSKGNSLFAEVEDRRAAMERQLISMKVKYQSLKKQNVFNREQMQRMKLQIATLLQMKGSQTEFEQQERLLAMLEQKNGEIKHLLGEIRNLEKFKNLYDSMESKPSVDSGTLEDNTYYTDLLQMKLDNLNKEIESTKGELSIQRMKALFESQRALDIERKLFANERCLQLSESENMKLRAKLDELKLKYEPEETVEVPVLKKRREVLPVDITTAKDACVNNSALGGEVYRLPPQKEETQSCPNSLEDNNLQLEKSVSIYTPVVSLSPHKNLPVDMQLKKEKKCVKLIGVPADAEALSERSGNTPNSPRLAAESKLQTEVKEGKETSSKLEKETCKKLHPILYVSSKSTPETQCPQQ

[5] = target: the molecule itself; assay: crystal structure; Spindly 1-100, Se-SAD, refined to 2.8 Å; Bis-Tris Propane/HCl pH 6.5, 19% PEG3350, 0.2 M potassium thiocyanate
[6] = target: the molecule itself; assay: not stated; unpublished observations; dimer-tetramer equilibrium, tetramer prevailing at micromolar concentration

^mChSpindly^Y26BPA (from UniProt Q96EA4 1-605) (natural protein)
stoichiometry N [1]: 2

B1: ^mChSpindly^∆276–306 (natural protein, human, UniProt Q96EA4 1-605, looked up)
chain: MEADIITNLRCRLKEAEEERLKAAQYGLQLVESQNELQNQLDKCRNEMMTMTESYEQEKYTLQREVELKSRMLESLSCECEAIKQQQKMHLEKLEEQLSRSHGQEVNELKTKIEKLKVELDEARLSEKQLKHQVDHQKELLSCKSEELRVMSERVQESMSSEMLALQIELTEMESMKTTLKEEVNELQYRQEQLELLITNLMRQVDRLKEEKEEREKEAVSYYNALEKARVANQDLQVQLDQALQQALDPNSKGNSLFAEVEDRRAAMERQLISMKGSQTEFEQQERLLAMLEQKNGEIKHLLGEIRNLEKFKNLYDSMESKPSVDSGTLEDNTYYTDLLQMKLDNLNKEIESTKGELSIQRMKALFESQRALDIERKLFANERCLQLSESENMKLRAKLDELKLKYEPEETVEVPVLKKRREVLPVDITTAKDACVNNSALGGEVYRLPPQKEETQSCPNSLEDNNLQLEKSVSIYTPVVSLSPHKNLPVDMQLKKEKKCVKLIGVPADAEALSERSGNTPNSPRLAAESKLQTEVKEGKETSSKLEKETCKKLHPILYVSSKSTPETQCPQQ
notes: predominantly dimeric, with a tendency to form tetramers; source: E. coli BL21 CodonPlus, purified (HisTrap, Resource Q, Superdex 200); not shown: mCherry, N-terminal, kept
stoichiometry N [2]: 2 and 4

B2: ^mChSpindly^76–605 (domain or fragment, human, UniProt Q96EA4 76-605, looked up)
chain: LSCECEAIKQQQKMHLEKLEEQLSRSHGQEVNELKTKIEKLKVELDEARLSEKQLKHQVDHQKELLSCKSEELRVMSERVQESMSSEMLALQIELTEMESMKTTLKEEVNELQYRQEQLELLITNLMRQVDRLKEEKEEREKEAVSYYNALEKARVANQDLQVQLDQALQQALDPNSKGNSLFAEVEDRRAAMERQLISMKVKYQSLKKQNVFNREQMQRMKLQIATLLQMKGSQTEFEQQERLLAMLEQKNGEIKHLLGEIRNLEKFKNLYDSMESKPSVDSGTLEDNTYYTDLLQMKLDNLNKEIESTKGELSIQRMKALFESQRALDIERKLFANERCLQLSESENMKLRAKLDELKLKYEPEETVEVPVLKKRREVLPVDITTAKDACVNNSALGGEVYRLPPQKEETQSCPNSLEDNNLQLEKSVSIYTPVVSLSPHKNLPVDMQLKKEKKCVKLIGVPADAEALSERSGNTPNSPRLAAESKLQTEVKEGKETSSKLEKETCKKLHPILYVSSKSTPETQCPQQ
notes: source: E. coli BL21 CodonPlus, purified (HisTrap, Resource Q, Superdex 200); not shown: mCherry, N-terminal, kept
stoichiometry N [2]: 2

B3: ^mChSpindly^ΔRV (natural protein, human, UniProt Q96EA4 1-605, looked up)
chain: MEADIITNLRCRLKEAEEERLKAAQYGLQLVESQNELQNQLDKCRNEMMTMTESYEQEKYTLQREVELKSRMLESLSCECEAIKQQQKMHLEKLEEQLSRSHGQEVNELKTKIEKLKVELDEARLSEKQLKHQVDHQKELLSCKSEELRVMSEQESMSSEMLALQIELTEMESMKTTLKEEVNELQYRQEQLELLITNLMRQVDRLKEEKEEREKEAVSYYNALEKARVANQDLQVQLDQALQQALDPNSKGNSLFAEVEDRRAAMERQLISMKVKYQSLKKQNVFNREQMQRMKLQIATLLQMKGSQTEFEQQERLLAMLEQKNGEIKHLLGEIRNLEKFKNLYDSMESKPSVDSGTLEDNTYYTDLLQMKLDNLNKEIESTKGELSIQRMKALFESQRALDIERKLFANERCLQLSESENMKLRAKLDELKLKYEPEETVEVPVLKKRREVLPVDITTAKDACVNNSALGGEVYRLPPQKEETQSCPNSLEDNNLQLEKSVSIYTPVVSLSPHKNLPVDMQLKKEKKCVKLIGVPADAEALSERSGNTPNSPRLAAESKLQTEVKEGKETSSKLEKETCKKLHPILYVSSKSTPETQCPQQ
notes: also called ^mChSpindly^∆RV; source: E. coli BL21 CodonPlus, purified (HisTrap, Resource Q, Superdex 200); not shown: mCherry, N-terminal, kept
stoichiometry N [2]: 2

B4: mCherry-tagged full-length Spindly (^mChSpindly^FL), Q96EA4 1-605 (natural protein)
chain: T1 chain
stoichiometry N [3]: 2

B5: ^mChSpindly^CC2* (R295E-K297E) (natural protein, human, UniProt Q96EA4 1-605, looked up)
chain: T1 chain with R295E, K297E
notes: as for B2
stoichiometry N [2]: 2

B6: full-length Spindly without mCherry tag, Q96EA4 1-605 (natural protein)
chain: T1 chain
stoichiometry N [4]: 2

B7: Spindly^1–250 (domain or fragment, human, UniProt Q96EA4 1-250, looked up)
chain: MEADIITNLRCRLKEAEEERLKAAQYGLQLVESQNELQNQLDKCRNEMMTMTESYEQEKYTLQREVELKSRMLESLSCECEAIKQQQKMHLEKLEEQLSRSHGQEVNELKTKIEKLKVELDEARLSEKQLKHQVDHQKELLSCKSEELRVMSERVQESMSSEMLALQIELTEMESMKTTLKEEVNELQYRQEQLELLITNLMRQVDRLKEEKEEREKEAVSYYNALEKARVANQDLQVQLDQALQQALDP
notes: also called CC1; source: TnAO38 insect cells (baculovirus), purified (HisTrap, Resource Q, Superdex 200)
binding result (Spindly^250–605): binds

B8: Spindly^1–100 (domain or fragment, human, UniProt Q96EA4 1-100, looked up)
chain: MEADIITNLRCRLKEAEEERLKAAQYGLQLVESQNELQNQLDKCRNEMMTMTESYEQEKYTLQREVELKSRMLESLSCECEAIKQQQKMHLEKLEEQLSR
notes: selenomethionine protein was also made for phasing; source: E. coli BL21 (DE3), purified (Ni-Sepharose, ion exchange, S200 SEC); not shown: His6, N-terminal, cleaved
stoichiometry N [5]: 2

B9: Spindly^1–275 (domain or fragment, human, UniProt Q96EA4 1-275, looked up)
chain: MEADIITNLRCRLKEAEEERLKAAQYGLQLVESQNELQNQLDKCRNEMMTMTESYEQEKYTLQREVELKSRMLESLSCECEAIKQQQKMHLEKLEEQLSRSHGQEVNELKTKIEKLKVELDEARLSEKQLKHQVDHQKELLSCKSEELRVMSERVQESMSSEMLALQIELTEMESMKTTLKEEVNELQYRQEQLELLITNLMRQVDRLKEEKEEREKEAVSYYNALEKARVANQDLQVQLDQALQQALDPNSKGNSLFAEVEDRRAAMERQLISM
notes: source: TnAO38 insect cells (baculovirus), purified (HisTrap, Resource Q, Superdex 200)
stoichiometry N [6]: 2 and 4
